Data on six molecules can be found in paper PMC5333127, “RD26 mediates crosstalk between drought and brassinosteroid signalling pathways” (Nature Communications, 2017).

For one data set, the target named is BES1 (Arabidopsis thaliana, UniProt Q9LN63 1-335). Briefly: EMSA; 25 mM HEPES-KOH pH 8.0, 1 mM DTT, 50 mM KCl, 10% glycerol, 20 μl, about 0.2 ng probe, 40 min on ice; 5% native PAGE in 1x TGE. Conditions: protein: recombinant; chain copies: 2; label: 32P 5' end; blunt.
For another data set, the target named is T1, RD26 (ANAC072) (Arabidopsis thaliana, UniProt Q93VY3 1-297).
T1 sequence: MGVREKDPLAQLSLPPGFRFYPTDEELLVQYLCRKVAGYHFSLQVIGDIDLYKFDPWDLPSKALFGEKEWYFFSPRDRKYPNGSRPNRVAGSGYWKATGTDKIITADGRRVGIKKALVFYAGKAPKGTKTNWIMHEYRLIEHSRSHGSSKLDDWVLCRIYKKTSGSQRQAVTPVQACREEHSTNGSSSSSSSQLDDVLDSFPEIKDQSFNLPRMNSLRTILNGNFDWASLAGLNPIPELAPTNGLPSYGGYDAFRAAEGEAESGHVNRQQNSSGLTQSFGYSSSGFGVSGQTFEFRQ
Described as above. Conditions: protein: recombinant; chain copies: 2; label: 32P 5' end; blunt.

The target of data set [1] is T2, BES1;RD26 (ANAC072) (Arabidopsis thaliana;Arabidopsis …, UniProt Q9LN63;Q93VY3 1-335;1-297, |). Kind of data set: EMSA; synergistic; proposed heterodimer; 25 mM HEPES-KOH pH 8.0, 1 mM DTT, 50 mM KCl, 10% glycerol, 20 μl, about 0.2 ng probe, 40 min on ice; 5% native PAGE in 1x TGE. Conditions: protein: recombinant;recombinant; copies: 1;1; label: 32P 5' end; blunt.
Data set [2] deals with T3, MBP-BES1, full-length BES1 (BRI1 EMS SUPPRESSOR 1) (Arabidopsis, UniProt Q9LN63 1-335).
T3 construct: BES1 (BRI1 EMS SUPPRESSOR 1), BES1/BZR1 family transcription factor of Arabidopsis, full length; also called BES1 FL; source: recombinant protein, purified; pETMALc-H
T3 sequence (looked up): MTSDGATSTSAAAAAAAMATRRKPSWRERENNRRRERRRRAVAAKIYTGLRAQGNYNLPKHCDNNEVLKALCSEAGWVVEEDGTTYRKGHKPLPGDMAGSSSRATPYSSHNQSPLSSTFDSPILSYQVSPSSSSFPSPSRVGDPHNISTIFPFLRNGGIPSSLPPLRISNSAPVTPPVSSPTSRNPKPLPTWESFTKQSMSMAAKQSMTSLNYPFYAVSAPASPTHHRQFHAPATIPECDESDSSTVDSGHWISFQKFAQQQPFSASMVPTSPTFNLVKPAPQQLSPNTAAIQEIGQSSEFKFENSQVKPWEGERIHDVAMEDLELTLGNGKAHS
Briefly: pull-down; GST pull-down; GST-tagged RD26 (full length or 1-140) or GST as bait, MBP-tagged BES1 (full length or 1-89) as prey; MBP-BES1 detected by anti-MBP antibody; 20% input shown. Conditions: both partners purified.

Data set [3] concerns the target T2, BES1;RD26 (ANAC072). Kind of data set: EMSA; 25 mM HEPES-KOH pH 8.0, 1 mM DTT, 50 mM KCl, 10% glycerol, 20 μl, about 0.2 ng probe, 40 min on ice; 5% native PAGE in 1x TGE. Conditions: protein: recombinant;recombinant; copies: 1;1; label: 32P 5' end; blunt.
The target in data set [4] is T4, GST-tagged RD26 DNA-binding/dimerization domain (aa 1-140) (Arabidopsis, UniProt Q93VY3 1-140).
T4 construct: also called RD26 (1-140); source: recombinant protein, purified; pET-42a (Novagen)
T4 sequence (looked up): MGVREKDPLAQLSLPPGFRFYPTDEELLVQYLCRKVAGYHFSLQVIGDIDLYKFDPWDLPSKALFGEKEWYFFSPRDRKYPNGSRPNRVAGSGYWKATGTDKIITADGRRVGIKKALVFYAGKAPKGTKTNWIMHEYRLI
Briefly: pull-down; GST pull-down; GST-tagged RD26 (full length or 1-140) or GST as bait, MBP-tagged BES1 (full length or 1-89) as prey; MBP-BES1 detected by anti-MBP antibody; 20% input shown. Conditions: both partners purified.

For data set [5], the target named is T2, BES1;RD26 (ANAC072). Briefly: EMSA; stronger than either protein alone; proposed heterodimer; 25 mM HEPES-KOH pH 8.0, 1 mM DTT, 50 mM KCl, 10% glycerol, 20 μl, about 0.2 ng probe, 40 min on ice; 5% native PAGE in 1x TGE. Conditions: protein: recombinant;recombinant; copies: 1;1; label: 32P 5' end; blunt.

B1: At4g00360 E-box WT (dsDNA)
DNA 1: ATTACCTAACTATACATGTGTAATGTGTTC
DNA 2: GAACACATTACACATGTATAGTTAGGTAAT
Regarding B1, the binding result in the data set with BES1, with RD26 (ANAC072) and in the data set with BES1;RD26 (ANAC072) [1] was “binds” in each case.

B2: GST-RD26, full-length RD26 (RESPONSIVE TO …ON 26) (natural protein, Arabidopsis, UniProt Q93VY3 1-297, looked up)
chain: T1 sequence
notes: RD26 (ANAC072), NAC family transcription factor of Arabidopsis, full length; also called ANAC072; RD26 FL; source: recombinant protein, purified; pET-42a (Novagen)
Take B2: the binding result in data set [2] was “binds”.

B3: At4g18010 BRRE MU (dsDNA)
DNA 1: AAACCGAAAACATTTTTTAGAAAGAAGAAA
DNA 2: TTTCTTCTTTCTAAAAAATGTTTTCGGTTT
On to B3, for which the binding result with BES1, with BES1;RD26 (ANAC072) [3] and with RD26 (ANAC072) was “no binding” each time.

B4: MBP-tagged BES1 DNA-binding/dimerization domain (aa 1-89) (domain or fragment, Arabidopsis, UniProt Q9LN63 1-89, looked up)
chain: MTSDGATSTSAAAAAAAMATRRKPSWRERENNRRRERRRRAVAAKIYTGLRAQGNYNLPKHCDNNEVLKALCSEAGWVVEEDGTTYRKG
notes: also called BES1 (1-89); source: recombinant protein, purified; pETMALc-H
For B4, in data set [4], the binding result is “binds”.

B5: At4g00360 E-box MU (dsDNA)
DNA 1: ATTACCTAACTATAAAAAAATAATGTGTTC
DNA 2: GAACACATTATTTTTTTATAGTTAGGTAAT
For the molecule B5, the binding result in the data set with BES1;RD26 (ANAC072) [3] is recorded as “no binding”.

B6: At4g18010 BRRE WT (dsDNA)
DNA 1: AAACCGAAAACACGTGTGAGAAAGAAGAAA
DNA 2: TTTCTTCTTTCTCACACGTGTTTTCGGTTT
Consider B6, for which the binding result with BES1 and with BES1;RD26 (ANAC072) [5] was “binds” in each case.
